Measured values reported in publication PMC4011921 (mAbs, 2014).

Legend:
human IL-6 = human IL-6 (Homo sapiens, UniProt P05231); test: SPR
cynomolgus IL-6 = cynomolgus IL-6 (cynomolgus, UniProt P79341); test: SPR
cynomolgus IL-6, sequence (P79341 28-212): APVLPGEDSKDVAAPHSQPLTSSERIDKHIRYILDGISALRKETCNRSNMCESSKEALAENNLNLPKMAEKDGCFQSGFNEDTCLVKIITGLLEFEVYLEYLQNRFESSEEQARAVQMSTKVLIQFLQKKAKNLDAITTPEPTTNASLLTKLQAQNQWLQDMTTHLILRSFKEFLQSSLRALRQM

human IL-6, sequence (P05231 30-212): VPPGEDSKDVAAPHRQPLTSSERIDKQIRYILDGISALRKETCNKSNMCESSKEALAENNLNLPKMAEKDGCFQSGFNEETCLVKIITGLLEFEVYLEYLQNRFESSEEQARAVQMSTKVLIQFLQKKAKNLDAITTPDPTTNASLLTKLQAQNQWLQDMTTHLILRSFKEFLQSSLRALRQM

B1: olokizumab (antibody, V domains shown)
VH: EVQLVESGGGLVQPGGSLRLSCAASGFNFNDYFMNWVRQAPGKGLEWVAQMRNKNYQYGTYYAESLEGRFTISRDDSKNSLYLQMNSLKTEDTAVYYCARESYYGFTSYWGQGTLVTVSS
VL: DIQMTQSPSSLSASVGDRVTITCQASQDIGISLSWYQQKPGKAPKLLIYNANNLADGVPSRFSGSGSGTDFTLTISSLQPEDFATYYCLQHNSAPYTFGQGTKLEIK
- Kd (human IL-6): 0.01 nM
- binding result (cynomolgus IL-6): binds
